According to patent publication US20220040297A1 (Chugai, published 2022):

Target: CD3ε homodimer protein (human, UniProt P07766 23-126, limits assumed)
Test: SPR, immobilized CD3ε homodimer;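 note: biacore T200 surface plasmon resonance at 25 °C, antibody variants flowed as analytes over amine-coupled CD3ε homodimer on a CM4 chip, variant binding amount divided by that of GLS3000 antibody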

Chain of CD3ε homodimer protein (P07766 23-126 limits assumed): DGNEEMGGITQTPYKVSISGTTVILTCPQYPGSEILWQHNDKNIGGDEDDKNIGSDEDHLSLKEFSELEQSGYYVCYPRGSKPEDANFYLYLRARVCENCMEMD

ratio of amounts bound (vs GLS3000)	Binder
0.26	GLS3000 G89E (antibody, name in Kabat numbering, V domains shown, one-arm format as m2) VH: QVQLVESGGGVVQPGRSLRLSCAASGFTFSNAWMHWVRQAPGKGLEWVAQIKAKSNNYATYYAESVKGRFTISRDDSKNSLYLQMNSLKTEDTAVYYCRYVHYGAYYGVDAWGQGTTVTVSS VL: DIVMTQSPLSLPVTPGEPASISCRSSQSLVHSNRNTYLHWYQQKPGQAPRLLIYKVSNRFSGVPDRFSGSGSGTDFTLKISRVEAEDVGVYYCEQGTQVPYTFGQGTKLEIK
1.19	GLS3000 G89Y (antibody, name in Kabat numbering, V domains shown, one-arm format as m2) VH: QVQLVESGGGVVQPGRSLRLSCAASGFTFSNAWMHWVRQAPGKGLEWVAQIKAKSNNYATYYAESVKGRFTISRDDSKNSLYLQMNSLKTEDTAVYYCRYVHYGAYYGVDAWGQGTTVTVSS VL: DIVMTQSPLSLPVTPGEPASISCRSSQSLVHSNRNTYLHWYQQKPGQAPRLLIYKVSNRFSGVPDRFSGSGSGTDFTLKISRVEAEDVGVYYCYQGTQVPYTFGQGTKLEIK
0.8	GLS3000 G89N (antibody, name in Kabat numbering, V domains shown, one-arm format as m2) VH: QVQLVESGGGVVQPGRSLRLSCAASGFTFSNAWMHWVRQAPGKGLEWVAQIKAKSNNYATYYAESVKGRFTISRDDSKNSLYLQMNSLKTEDTAVYYCRYVHYGAYYGVDAWGQGTTVTVSS VL: DIVMTQSPLSLPVTPGEPASISCRSSQSLVHSNRNTYLHWYQQKPGQAPRLLIYKVSNRFSGVPDRFSGSGSGTDFTLKISRVEAEDVGVYYCNQGTQVPYTFGQGTKLEIK
0.16	GLS3000 G91E (antibody, name in Kabat numbering, V domains shown, one-arm format as m2) VH: QVQLVESGGGVVQPGRSLRLSCAASGFTFSNAWMHWVRQAPGKGLEWVAQIKAKSNNYATYYAESVKGRFTISRDDSKNSLYLQMNSLKTEDTAVYYCRYVHYGAYYGVDAWGQGTTVTVSS VL: DIVMTQSPLSLPVTPGEPASISCRSSQSLVHSNRNTYLHWYQQKPGQAPRLLIYKVSNRFSGVPDRFSGSGSGTDFTLKISRVEAEDVGVYYCGQETQVPYTFGQGTKLEIK
0.19	GLS3000 G89R (antibody, name in Kabat numbering, V domains shown, one-arm format as m2) VH: QVQLVESGGGVVQPGRSLRLSCAASGFTFSNAWMHWVRQAPGKGLEWVAQIKAKSNNYATYYAESVKGRFTISRDDSKNSLYLQMNSLKTEDTAVYYCRYVHYGAYYGVDAWGQGTTVTVSS VL: DIVMTQSPLSLPVTPGEPASISCRSSQSLVHSNRNTYLHWYQQKPGQAPRLLIYKVSNRFSGVPDRFSGSGSGTDFTLKISRVEAEDVGVYYCRQGTQVPYTFGQGTKLEIK
0.94	GLS3000 G89L (antibody, name in Kabat numbering, V domains shown, one-arm format as m2) VH: QVQLVESGGGVVQPGRSLRLSCAASGFTFSNAWMHWVRQAPGKGLEWVAQIKAKSNNYATYYAESVKGRFTISRDDSKNSLYLQMNSLKTEDTAVYYCRYVHYGAYYGVDAWGQGTTVTVSS VL: DIVMTQSPLSLPVTPGEPASISCRSSQSLVHSNRNTYLHWYQQKPGQAPRLLIYKVSNRFSGVPDRFSGSGSGTDFTLKISRVEAEDVGVYYCLQGTQVPYTFGQGTKLEIK
1.09	GLS3000 G89F (antibody, name in Kabat numbering, V domains shown, one-arm format as m2) VH: QVQLVESGGGVVQPGRSLRLSCAASGFTFSNAWMHWVRQAPGKGLEWVAQIKAKSNNYATYYAESVKGRFTISRDDSKNSLYLQMNSLKTEDTAVYYCRYVHYGAYYGVDAWGQGTTVTVSS VL: DIVMTQSPLSLPVTPGEPASISCRSSQSLVHSNRNTYLHWYQQKPGQAPRLLIYKVSNRFSGVPDRFSGSGSGTDFTLKISRVEAEDVGVYYCFQGTQVPYTFGQGTKLEIK
0.52	GLS3000 G89M (antibody, name in Kabat numbering, V domains shown, one-arm format as m2) VH: QVQLVESGGGVVQPGRSLRLSCAASGFTFSNAWMHWVRQAPGKGLEWVAQIKAKSNNYATYYAESVKGRFTISRDDSKNSLYLQMNSLKTEDTAVYYCRYVHYGAYYGVDAWGQGTTVTVSS VL: DIVMTQSPLSLPVTPGEPASISCRSSQSLVHSNRNTYLHWYQQKPGQAPRLLIYKVSNRFSGVPDRFSGSGSGTDFTLKISRVEAEDVGVYYCMQGTQVPYTFGQGTKLEIK
1.07	GLS3000 G89I (antibody, name in Kabat numbering, V domains shown, one-arm format as m2) VH: QVQLVESGGGVVQPGRSLRLSCAASGFTFSNAWMHWVRQAPGKGLEWVAQIKAKSNNYATYYAESVKGRFTISRDDSKNSLYLQMNSLKTEDTAVYYCRYVHYGAYYGVDAWGQGTTVTVSS VL: DIVMTQSPLSLPVTPGEPASISCRSSQSLVHSNRNTYLHWYQQKPGQAPRLLIYKVSNRFSGVPDRFSGSGSGTDFTLKISRVEAEDVGVYYCIQGTQVPYTFGQGTKLEIK
0.5	GLS3000 G89W (antibody, name in Kabat numbering, V domains shown, one-arm format as m2) VH: QVQLVESGGGVVQPGRSLRLSCAASGFTFSNAWMHWVRQAPGKGLEWVAQIKAKSNNYATYYAESVKGRFTISRDDSKNSLYLQMNSLKTEDTAVYYCRYVHYGAYYGVDAWGQGTTVTVSS VL: DIVMTQSPLSLPVTPGEPASISCRSSQSLVHSNRNTYLHWYQQKPGQAPRLLIYKVSNRFSGVPDRFSGSGSGTDFTLKISRVEAEDVGVYYCWQGTQVPYTFGQGTKLEIK
0.16	GLS3000 G91D (antibody, name in Kabat numbering, V domains shown, one-arm format as m2) VH: QVQLVESGGGVVQPGRSLRLSCAASGFTFSNAWMHWVRQAPGKGLEWVAQIKAKSNNYATYYAESVKGRFTISRDDSKNSLYLQMNSLKTEDTAVYYCRYVHYGAYYGVDAWGQGTTVTVSS VL: DIVMTQSPLSLPVTPGEPASISCRSSQSLVHSNRNTYLHWYQQKPGQAPRLLIYKVSNRFSGVPDRFSGSGSGTDFTLKISRVEAEDVGVYYCGQDTQVPYTFGQGTKLEIK
0.26	GLS3000 G91T (antibody, name in Kabat numbering, V domains shown, one-arm format as m2) VH: QVQLVESGGGVVQPGRSLRLSCAASGFTFSNAWMHWVRQAPGKGLEWVAQIKAKSNNYATYYAESVKGRFTISRDDSKNSLYLQMNSLKTEDTAVYYCRYVHYGAYYGVDAWGQGTTVTVSS VL: DIVMTQSPLSLPVTPGEPASISCRSSQSLVHSNRNTYLHWYQQKPGQAPRLLIYKVSNRFSGVPDRFSGSGSGTDFTLKISRVEAEDVGVYYCGQTTQVPYTFGQGTKLEIK
0.35	GLS3000 G89P (antibody, name in Kabat numbering, V domains shown, one-arm format as m2) VH: QVQLVESGGGVVQPGRSLRLSCAASGFTFSNAWMHWVRQAPGKGLEWVAQIKAKSNNYATYYAESVKGRFTISRDDSKNSLYLQMNSLKTEDTAVYYCRYVHYGAYYGVDAWGQGTTVTVSS VL: DIVMTQSPLSLPVTPGEPASISCRSSQSLVHSNRNTYLHWYQQKPGQAPRLLIYKVSNRFSGVPDRFSGSGSGTDFTLKISRVEAEDVGVYYCPQGTQVPYTFGQGTKLEIK
0.27	GLS3000 G91P (antibody, name in Kabat numbering, V domains shown, one-arm format as m2) VH: QVQLVESGGGVVQPGRSLRLSCAASGFTFSNAWMHWVRQAPGKGLEWVAQIKAKSNNYATYYAESVKGRFTISRDDSKNSLYLQMNSLKTEDTAVYYCRYVHYGAYYGVDAWGQGTTVTVSS VL: DIVMTQSPLSLPVTPGEPASISCRSSQSLVHSNRNTYLHWYQQKPGQAPRLLIYKVSNRFSGVPDRFSGSGSGTDFTLKISRVEAEDVGVYYCGQPTQVPYTFGQGTKLEIK
0.38	GLS3000 G89Q (antibody, name in Kabat numbering, V domains shown, one-arm format as m2) VH: QVQLVESGGGVVQPGRSLRLSCAASGFTFSNAWMHWVRQAPGKGLEWVAQIKAKSNNYATYYAESVKGRFTISRDDSKNSLYLQMNSLKTEDTAVYYCRYVHYGAYYGVDAWGQGTTVTVSS VL: DIVMTQSPLSLPVTPGEPASISCRSSQSLVHSNRNTYLHWYQQKPGQAPRLLIYKVSNRFSGVPDRFSGSGSGTDFTLKISRVEAEDVGVYYCQQGTQVPYTFGQGTKLEIK
0.4	GLS3000 G89K (antibody, name in Kabat numbering, V domains shown, one-arm format as m2) VH: QVQLVESGGGVVQPGRSLRLSCAASGFTFSNAWMHWVRQAPGKGLEWVAQIKAKSNNYATYYAESVKGRFTISRDDSKNSLYLQMNSLKTEDTAVYYCRYVHYGAYYGVDAWGQGTTVTVSS VL: DIVMTQSPLSLPVTPGEPASISCRSSQSLVHSNRNTYLHWYQQKPGQAPRLLIYKVSNRFSGVPDRFSGSGSGTDFTLKISRVEAEDVGVYYCKQGTQVPYTFGQGTKLEIK
0.27	GLS3000 G91A (antibody, name in Kabat numbering, V domains shown, one-arm format as m2) VH: QVQLVESGGGVVQPGRSLRLSCAASGFTFSNAWMHWVRQAPGKGLEWVAQIKAKSNNYATYYAESVKGRFTISRDDSKNSLYLQMNSLKTEDTAVYYCRYVHYGAYYGVDAWGQGTTVTVSS VL: DIVMTQSPLSLPVTPGEPASISCRSSQSLVHSNRNTYLHWYQQKPGQAPRLLIYKVSNRFSGVPDRFSGSGSGTDFTLKISRVEAEDVGVYYCGQATQVPYTFGQGTKLEIK
1.63	GLS3000 G89V (antibody, name in Kabat numbering, V domains shown, one-arm format as m2) VH: QVQLVESGGGVVQPGRSLRLSCAASGFTFSNAWMHWVRQAPGKGLEWVAQIKAKSNNYATYYAESVKGRFTISRDDSKNSLYLQMNSLKTEDTAVYYCRYVHYGAYYGVDAWGQGTTVTVSS VL: DIVMTQSPLSLPVTPGEPASISCRSSQSLVHSNRNTYLHWYQQKPGQAPRLLIYKVSNRFSGVPDRFSGSGSGTDFTLKISRVEAEDVGVYYCVQGTQVPYTFGQGTKLEIK
0.7	GLS3000 G89H (antibody, name in Kabat numbering, V domains shown, one-arm format as m2) VH: QVQLVESGGGVVQPGRSLRLSCAASGFTFSNAWMHWVRQAPGKGLEWVAQIKAKSNNYATYYAESVKGRFTISRDDSKNSLYLQMNSLKTEDTAVYYCRYVHYGAYYGVDAWGQGTTVTVSS VL: DIVMTQSPLSLPVTPGEPASISCRSSQSLVHSNRNTYLHWYQQKPGQAPRLLIYKVSNRFSGVPDRFSGSGSGTDFTLKISRVEAEDVGVYYCHQGTQVPYTFGQGTKLEIK
1.03	GLS3000 G89T (antibody, name in Kabat numbering, V domains shown, one-arm format as m2) VH: QVQLVESGGGVVQPGRSLRLSCAASGFTFSNAWMHWVRQAPGKGLEWVAQIKAKSNNYATYYAESVKGRFTISRDDSKNSLYLQMNSLKTEDTAVYYCRYVHYGAYYGVDAWGQGTTVTVSS VL: DIVMTQSPLSLPVTPGEPASISCRSSQSLVHSNRNTYLHWYQQKPGQAPRLLIYKVSNRFSGVPDRFSGSGSGTDFTLKISRVEAEDVGVYYCTQGTQVPYTFGQGTKLEIK
0.26	GLS3000 G91S (antibody, name in Kabat numbering, V domains shown, one-arm format as m2) VH: QVQLVESGGGVVQPGRSLRLSCAASGFTFSNAWMHWVRQAPGKGLEWVAQIKAKSNNYATYYAESVKGRFTISRDDSKNSLYLQMNSLKTEDTAVYYCRYVHYGAYYGVDAWGQGTTVTVSS VL: DIVMTQSPLSLPVTPGEPASISCRSSQSLVHSNRNTYLHWYQQKPGQAPRLLIYKVSNRFSGVPDRFSGSGSGTDFTLKISRVEAEDVGVYYCGQSTQVPYTFGQGTKLEIK
